Experimental findings from the DeepSol protein solubility set are described below.

This data set can be described thus: soluble on expression in E. coli; label from the status in PepcDB or PDB records.
For the sequence “DVSQKIKDIDDQIQQLLLKQRHLLSKMASSMKSLKNCQKELISTQILQFEAQNMDVSMNDVIGFFNEREADLK”, the “soluble on expression in E. coli” value is listed as “soluble”. “GSPLPAAGFKKQQRKFQYGNYCKYYGYRNPSCEDGRLRVLKPEWFRGRDVLDLGCNVGHLTLSIACKWGPSRMVGLDIDSRLIHSARQNIRHYLSEELRLPPQTLEGDPGAEGEEGTTTVRKRSCFPASLTASRGPIAAPQVPLDGADTSVFPNNVVFVTGNYVLDRDDLVEAQTPEYDVVLCLSLTKWVHLNWGDEGLKRMFRRIYRHLRPGGILVLEPQPWSSYGKRKTLTETIYKNYYRIQLKPEQFSSYLTSPDVGFSSYELVATPHNTSKGFQRPVYLFHKARSPSH”: the “soluble on expression in E. coli” value was “soluble”. With “MNTGHDGALAYDEPIYLSDGNIINIGEFVDKFFKKYKNSIKKEDNGFGWIDIGNENIYIKSFNKLSLIIEDKRILRVWRKKYSGKLIKITTKNRREITLTHDHPVYISKTGEVLEINAEMVKVGDYIYIPKNNTINLDEVIKVETVDYNGHIYDLTVEDNHTYIAGKNEGFAVSASSGTLHHHHHH” the entry was “soluble”; with “YIRKRVPLLCLGKRWFVFDKSLMKKTISYGSTSAMQQVCLQIGKTIIQAVVNTQGVSVMAAFTAVNRVDDFAYIPQQNIGHAMTTFIAQNKGAGKRERIRRGLQ”, “not soluble”; with “MAHHHHHHMRFFKSDGTPYNSDMTDTLHGSEYVHRGGVEAIVEGVAAGQYAEHKPRAIMFVNKRPVEIIPQEENLLEVLEREGIRVPKFCYHPILSVAGNCRMCLVQVDGTQNLVVSCATVALPGMSIITDSRLVRDAREGNVELILINHPNDCPICEQATNCDLQNISMNYGTDIPRYKEDKRAVQDFYFDPQTRVVLNRCIHCTRCVRFLNEHAQDFNLGMIGRGGLSEISTFLDELEVKTDNNMPVSQLCPVGKLYLGDADENNAVADELDASEQAYAVATS”, “soluble”. Regarding “MGHHHHHHSHMFMREIELKGHIIDSFILAKVFDRTLELGGDYKVLEFDIGKKKIDTSYAKLLISGDTQQHLDQILEELQNVGANIPEIENANLKPALKDSVLPDGFYSTTNHPTHVKVNDEWIEVANPKMDAVIVVYPEEKRAETKVIRKVKKGDFVLIGHNGIRVMPPEKSREAGQLFEFMNSEVSSEKPKEAIIKRIAKEMHEIREEYKKTGTGGIAIVGGPAIIHTGGGPALAKMVELGYIQAILAGNALATHDIESALYGTSLGVNIKTAKPVTGGHKHHIYAINAINDAGNIKNAVESGVLKEGIMYQCIKNNIPYVLAGSIRDDGPIPDVITDSMVAQDKMRTTVMDKKMVIMLSTLLHSVATGNLMPSYIKTVCVDIQPSTVTKLMDRGTSQAIGVVTDVGVFLVLLLKELERLELQE”, the “soluble on expression in E. coli” value was “soluble”. As for “MDSRLSDFLARAESVLARLEPLLPAVREAVDWERSLAARWHRDGRSGYLQPLEVSLDLRLADLLGVERQREQLERNTRQFVAGQPANHALLWGARGTGKSSLVRALLAELAGAGLRLIEIERDHLADLPRVVEQLQGLPQRFVLFCDDLSFDAGEGDYRVLKSVLDGSLEQAPENVLLYATSNRRHLVSEKQSDNENWKMVDGELHPNEAVEDKIALSDRFGLWLSFYPFTQEHFLSVVHHWVDVLAEKAGLAWSWSEELEKEAIRWALGRGNRNGRCAYQFSRYWVGKQLLERQA”, the entry is “not soluble”; as for “MSLIDPKRARLPIIRQCTLLRLNRSGVYYRSVPQSEANLELMRLIDAQFLETPYYGSRQMTWHLRRLGHEVGRKRVRRLMAIMGLRAIYQKPRTSVPHPEHRKYPYLLRDLVIDRPNQVWCSDITYIPMKRGFLYLVAIMDWFTRKVLSWRLSNTMDAEFCIEALRDALMRYGPPEIFNTDQGSQFTTPRFTGILEERQIRISMDGRGRWLDNVFIERLWRSLKYECVYLHAFETESELRVGLTKWITHYNGQRPHTALAGRTPDEAYHGVPTPSGPGLTPDQMANSNAVRMAAEGHHHHHH”, “soluble”; as for “EEKVVAEQQADGTWLMDGWISIRKASNLLEHDLVDEAERYSTLGGYLLWQFGYIPAAGEQITVDGLIFEIVSVNKHNIGKVRVHRTQ”, “soluble”. With “MEPTENLDVCLATLRDTDRDRYLACLLSPADKRNALAALYAFNAEIARIRDSVREALPGEVRMQWWRDLVDGNPHGDSQSHPVAAALLTTIEHYRLPRPVLGNMIEARIFDLYDDLFEDRNALEGYAGETASALIQLASLVLSAEDAAHSAEAAGHAGVAQAMAGMLLLMPLHRRRGQVYIPADMLAAAGLDRETFLAGQDRQRIGIAVEIFAAHALDHIEKARRATISKNLFAAYLPVALSGPVIAAARKAGAGVFDGDLQLSQLRRQWLLAKASFLKRF”, the “soluble on expression in E. coli” value is “not soluble”. With “GKSPEAECNKITEEPKCSEEKICSWHKEVKAGEKNCQFNSTKASKS” the entry was “soluble”; with “DIHPYSVSYSWDKQVEDEDHMEVFPAGSSFPSTKLITLNRTGDFSMAASYTDITQLPPNTPEQIANWEITGVQLPEGQDSVPVKLKLRCDPSGLHTIEEAYTIEDIEVEEPIPLPEDAPEDAEQEFKKVTKTVKKDDLTIVAHTFGLDAKKLNELIEKENEMLAQDKLVAETEDRKNTLE”, “not soluble”; with “MGSDKIHHHHHHQKEGSLKIGKEGAESGFINLRVEIPPGAFGKQKVLKITRLSDEERKLYPDVFVGDLYRVEFADGVDEFALKPIRLKYYFDAKYLRGENYNNLTFAYATEDGGYRIIPGSMIGKDERGYYVEAFTYHLSVFGVVLRSAGFQKHGIRLLREAVNSSGPAVLLVPGEDPTFEGVVKDNNIWETIFPDRTIMTYEYALYEPRSLAYSEMYRSFIEKEGRRSFIDFESDFLSQEILKYSQYEFDILAHGTGGLIVLRMLQRHPEVNNVRKVVLLSTPVQGTNVVNPLYFSSIFYGKDPEVLEDIFGIEWTKLKMLTLHIRNLIDTLGEVVQEILPDSQLVKELGGFSRNDVEIVSICGDTPPYGVDVSGTELERFYPEFVKGRGDGFVSIQSCRVGKVEQLSGNFYDLYSREENVAYIRELLKYEVQVFSGFRSDDYEEYLPSKNPELSEESAQKVVEVKETEGTEFPVLPVNILFENFLERIRSLELSSYLSGALVGKEVYIATESGVFAWDKKVLDKKIEFFKKIEDYASFVGEGDIFIIDNIGIKKYAPFPLVGDISDALITRNAIIYARVVPGGVRYYLFRNGAEKLIATSPGTTVRMKSENGNYLLITDGEVVAIGSDFKEKGRVLSSLFGEKVKIVDASFKDDAFYILLNDGSIAFVSSSRSETKNYGLAVPKKVLNFQGRILVVYDGVILDLSAGKAQRFDRGIIDVFPGNESLFIVFDEKVRVSVEEWWLSKD”, “not soluble”. In the case of “MSELDFVRRGQDLKAYRALNWEGSFADYLRLLKEDPRPLRTSFQRVHDMILAHGVEEYTRFKEKLLHYRFFDDPFEGGKDAVFGLDKPLMRLVATLKAAAHRLGPERRILLLHGPVGSAKSTIARLLKKGLEAYSRTEEGKLFTFYWKTEEGPLPCPMHEEPLHLLPQDLREAFLEELRALHPDYPYPLEVEGDLCPVCRFQMREGLRKYEGDLAALLEHEVVVKRLVLSEKDRVGIGTFQPKDEKNQDSTELTGDINYRKVALYGSDSDPRAFNFDGELNIANRGIVEFIEILKLDVAFLYDLLTASQEHKIKSKKFAQTDIDEIVLGHTNEPEYRKLQANEYMEALRDRTIKIDVPYILRVSDEVRIYQRDFAKVRGKHIAPHTLEMAATWAVLTRLEPPKRAGLTLMQKLKLYDGKLLPGWTEEAVRELMGEAKREGLEGISPRYIQDKISNVLVTSEEPCINPFMVMNELEEGLKHHSLISDERTRERYRALLQEVKAEYAEIVKNEVQRAIAADEEALNRLFHNYIDHVKAYVLGEKVKNPYTGAPEPPNERLMRSIEERIDIPESRKDDFRREIMNYIGALALEGKPFTYKDNDRLRRALELKLFDDQKDTIRLSALVSGVVDPETQAKIDVVKARLIRDYGYCEHCASGVLEFAASLFARS”, the “soluble on expression in E. coli” value is given as “soluble”. As for “AKADSEQGNGEDKGTGTKGDGTGRGEGSGKGSGGVKGEHGEGAGSSKGNPLRANGSIPRPAYPTLSMENDEQGTVVLSVLVSPGGHVESVKIVKSSGFSRLDNAARKAAQNGHFQANAWTEFKVPVKFELN”, the entry is “soluble”; as for “MSLDRIKEYLQDKGKVTVNDLAQALGKDSSKDFRELIKTLSLMERKHQIRFEEDGSLTLEAKKKHEITLKGIFHAHKNGFGFVSLEGEEDDLFVGKNDVNYAIDGDTVEVVIKKVADRNKGTAAEAKIIDILEHSLTTVVGQIVLDQEKPKYAGYIRSKNQKISQPIYVKKSALKLEGTEVLKVFIDKYPSKKHDFFVASVLDVVGHSTDVGIDVLEVLESMDIVSEFPEAVVKEAESVPDAPSQKDMEGRLDLRDEITFTIDGADAKDLDDAVHIKALKNGNLELGVHIADVSYYVTEGSALDKEALNRATSVYVTDRVVPMLPERLSNGICSLNPQVDRLTQSAIMEIDKHGRVVNYTITQTVIKTSFRMTYSDVNDILAGDEEKRKEYHKIVSSIELMAKLHETLENMRVKRGALNFDTNEAKILVDKQGKPVDIVLRQRGIAERMIESFMLMANETVAEHFSKLDLPFIYRIHEEPKAEKVQKFIDYASSFGLRIYGTASEISQEALQDIMRAVEGEPYADVLSMMLLRSMQQARYSEHNHGHYGLAADYYTHFTSPIRRYPDLLVHRMIRDYGRSKEIAEHFEQVIPEIATQSSNRERRAIEAEREVEAMKKAEYMEEYVGEEYDAVVSSIVKFGLFVELPNTVEGLIHITNLPEFYHFNERDLTLRGEKSGITFRVGQQIRIRVERADKMTGEIDFSFVPSEFDVIEKGLKQSSRSGRGRGSNRRSDKKEDKRKSGRSNDKRKHSQKDKKKKGKKPFYKEVAKKGAKHGKGRGKGRRTKEGHHHHHH”, “not soluble”; as for “MNDHIHRVPALTEEEIDSVAIKTFERYALPSSSSVKRKGKGVTILWFRNDLRVLDNDALYKAWSSSDTILPVYCLDPRLFHTTHFFNFPKTGALRGGFLMECLVDLRKNLMKRGLNLLIRSGKPEEILPSLAKDFGARTVFAHKETCSEEVDVERLVNQGLKRVGNSTKLELIWGSTMYHKDDLPFDVFDLPDVYTQFRKSVEAKCSIRSSTRIPLSLGPTPSVDDWGDVPTLEKLGVEPQEVTRGMRFVGGESAGVGRVFEYFWKKDLLKVYKETRNGMLGPDYSTKFSPWLAFGCISPRFIYEEVQRYEKERVANNSTYWVLFELIWRDYFRFLSIKCGNSLFHLGGPRNVQGKWSQDQKLFESWRDAKTGYPLIDANMKELSTTGFMSNRGRQIVCSFLVRDMGLDWRMGAEWFETCLLDYDPCSNYGNWTYGAGVGNDPREDRYFSIPKQAQNYDPEGEYVAFWLQQLRRLPKEKRHWPGRLMYMDTVVPLKHGNGPMAGGSKSGGGFRGSHSGRRSRHNGP”, “soluble”.

As for “MTVEWLAEQLKEHNIQLTETQKQQFQTYYRLLVEWNEKMNLTSITDEHDVYLKHFYDSIAPSFYFDFNQPISICDVGAGAGFPSIPLKIMFPQLKVTIVDSLNKRIQFLNHLASELQLQDVSFIHDRAETFGKGVYRESYDVVTARAVARLSVLSELCLPLVKKGGQFVALKSSKGEEELEEAKFAISVLGGNVTETHTFELPEDAGERQMFIIDKKRQTPKKYPRKPGTPNKTPLLEK”, the “soluble on expression in E. coli” value was “not soluble”. With “MAITNIKCVIFDCDGTLVDSERLCCQALVNVFNQHGAELTMEECVSHFKGGKLADILLDTKELMNINVPIDVLEPQYRTEVQKLFVRHLQPMDGAKRLIQFLDSHNIEYCVASNGPKDKIEHALELTGLLDAFKGKVFSAFEANSWKPEPDLIMYSAMSMGFLPSDCLYIDDTPKGVEAGLNAGIKTVQLFNGEAINRVDDDRVIRIQHLDELKEQLMGCSV” the entry was “not soluble”.
